From patent publication US20150064174A1 (BRIGHAM AND WOMEN S HOSPITAL, published 2015)

Molecular target: T1, Epstein-Barr virus (EBV)-encoded glycoprotein 350 (gp350) (Epstein-Barr virus, UniProt P03200 1-860)
T1 construct: also called EBV gp350; column-purified EBV gp350 protein
T1 sequence: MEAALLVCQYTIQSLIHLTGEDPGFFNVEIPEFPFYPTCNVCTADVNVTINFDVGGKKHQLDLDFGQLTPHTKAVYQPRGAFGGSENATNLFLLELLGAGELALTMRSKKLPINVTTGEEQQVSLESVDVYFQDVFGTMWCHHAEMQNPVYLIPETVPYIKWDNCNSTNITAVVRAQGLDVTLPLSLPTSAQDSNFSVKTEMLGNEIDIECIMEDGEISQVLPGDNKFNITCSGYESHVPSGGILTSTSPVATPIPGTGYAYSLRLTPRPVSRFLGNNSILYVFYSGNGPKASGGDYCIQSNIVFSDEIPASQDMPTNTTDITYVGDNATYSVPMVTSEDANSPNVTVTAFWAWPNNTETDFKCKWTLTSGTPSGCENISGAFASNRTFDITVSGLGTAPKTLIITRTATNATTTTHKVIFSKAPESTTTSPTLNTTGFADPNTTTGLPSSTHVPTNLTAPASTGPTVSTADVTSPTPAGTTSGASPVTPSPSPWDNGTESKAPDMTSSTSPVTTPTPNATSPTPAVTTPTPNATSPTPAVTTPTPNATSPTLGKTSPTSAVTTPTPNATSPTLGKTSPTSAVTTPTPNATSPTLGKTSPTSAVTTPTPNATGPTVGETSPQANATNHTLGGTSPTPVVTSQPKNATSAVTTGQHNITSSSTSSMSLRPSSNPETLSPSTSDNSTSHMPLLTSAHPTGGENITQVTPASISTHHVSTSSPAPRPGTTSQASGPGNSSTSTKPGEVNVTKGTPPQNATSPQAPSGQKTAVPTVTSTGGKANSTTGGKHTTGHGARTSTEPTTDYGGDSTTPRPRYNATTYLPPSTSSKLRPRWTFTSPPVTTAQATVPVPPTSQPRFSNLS
Test: ELISA, plate-coated purified gp350, HEK293T supernatant, anti-human IgG-HRP

B1: recombinant humanized (chimeric) 72A1 antibody, heavy chain 2 and lambda light chain (Vh2+L) (antibody, V domains shown)
VH: DVQLVESGGGLVQPGGSRKLSCAASGFTFSSFGMHWVRQAPEKGLEWVAYISSGSSTLHYADTVKGRFTISRDNPKNTLFLQMTSLRSEDTAMYYCARWGNYPHYAMDYWGQGTSVTVSS
VL: QAVLTQESALTTSPGETVTLTCRSSTGAVTTSNYANWVQEKPDHLFTGLIGGTNNRVPGVPARFSGSLIGDKAALTITGAQTEDEAIYFCVLWHSNHWVFGGGTKLTVL
notes: Murine variable regions on human IgG1 (pCIRN) and human IgK (pEIG) constant regions; HEK293T supernatant
binding result: no binding (tested: supernatant diluted 1:2)
